Measured values published in patent publication US20220135638A1 (Takeda / Millennium, published 2022).
Numbered stars: 1 amine (or outer) side, 2 acyl side, 3 side chain; on linkers, the order of the positions; unused ones are H or OH. Square brackets hold non-standard residues; d marks the D form. Primed or numbered codes have the meaning given here. Side chains are listed from the residue outwards. Ends that are not written are not given here. * marks the point of attachment. C20 diacid = O=C(O)CCCCCCCCCCCCCCCCCCC(=O)*; C18 diacid = O=C(O)CCCCCCCCCCCCCCCCC(=O)*; C16 diacid = O=C(O)CCCCCCCCCCCCCCC(=O)*; γGlu = O=C(O)[C@H](CCC(=O)[*:2])N[*:1]; Iva = CC[C@](C)(N)C(=O)O; PEG3′ = not defined here; Aib = CC(C)(N)C(=O)O

Columns and labels:
[1] = biological target: T1, full-length human GIPR (GenBank NM_000164) with an N-terminal FLAG tag on HEK-293T cells (human), P48546; test: cell-based or functional assay
T1 chain: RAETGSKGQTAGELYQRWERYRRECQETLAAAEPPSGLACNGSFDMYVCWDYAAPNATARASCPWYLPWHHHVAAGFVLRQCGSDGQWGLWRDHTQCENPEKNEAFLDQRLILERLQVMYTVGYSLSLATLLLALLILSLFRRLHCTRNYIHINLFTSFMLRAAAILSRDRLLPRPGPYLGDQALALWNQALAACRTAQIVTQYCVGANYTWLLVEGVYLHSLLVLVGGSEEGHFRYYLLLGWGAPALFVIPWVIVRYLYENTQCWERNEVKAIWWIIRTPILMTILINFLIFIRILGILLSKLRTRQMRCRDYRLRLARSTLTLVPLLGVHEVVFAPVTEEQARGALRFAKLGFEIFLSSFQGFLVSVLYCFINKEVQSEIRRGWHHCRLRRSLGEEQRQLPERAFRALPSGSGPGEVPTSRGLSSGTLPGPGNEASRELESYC

[2] = biological target: T2, full-length human GLP-1R (GenBank NM_002062) with an N-terminal FLAG tag on HEK-293T cells (human), P43220; test: cell-based or functional assay
T2 chain: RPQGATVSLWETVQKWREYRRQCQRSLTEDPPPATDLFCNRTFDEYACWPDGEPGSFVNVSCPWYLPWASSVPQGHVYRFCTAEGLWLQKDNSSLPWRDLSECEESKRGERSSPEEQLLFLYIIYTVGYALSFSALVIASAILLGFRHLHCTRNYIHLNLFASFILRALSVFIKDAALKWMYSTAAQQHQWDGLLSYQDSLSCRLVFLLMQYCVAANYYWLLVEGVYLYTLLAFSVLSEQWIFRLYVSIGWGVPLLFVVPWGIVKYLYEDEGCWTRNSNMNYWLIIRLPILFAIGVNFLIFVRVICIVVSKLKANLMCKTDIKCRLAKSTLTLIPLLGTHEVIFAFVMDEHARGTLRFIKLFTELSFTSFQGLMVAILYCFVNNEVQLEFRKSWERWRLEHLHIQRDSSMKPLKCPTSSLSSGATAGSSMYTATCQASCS

## Y[Aib]EGTFISDYSIALDR[Aib]HQ[Aib]NFVNW[Iva]LAQRPK([Gly-Gly-Gly-Gly-Gly-γGlu-C16 diacid])SGAPPPS (ends and bridges not checked) [Compound No. 441]
[1]
  GIP EC50(pM): 0.33 pM
[2]
  GLP EC50: > 1000 nM

## Y[Aib]EGTFISDYSIALDR[Aib]HQ[Aib]NFVNW[Iva]LAQRPK([Gly-Gly-Gly-Gly-Gly-γGlu-C18 diacid])SGAPPPS (ends and bridges not checked) [Compound No. 442]
[1]
  GIP EC50(pM): 1.01 pM
[2]
  GLP EC50: > 1000 nM

## Y[Aib]EGTFISDYSIALDR[Aib]HQ[Aib]NFVNW[Iva]LAQRPK([Gly-Gly-Gly-Gly-Gly-γGlu-C20 diacid])SGAPPPS (ends and bridges not checked) [Compound No. 443]
[1]
  GIP EC50(pM): 0.86 pM
[2]
  GLP EC50: 977 nM

## Y[Aib]EGTFISDYSIALDR[Aib]HQ[Aib]NFVNW[Iva]LAQRPSK([Gly-Gly-Gly-Gly-Gly-γGlu-C16 diacid])GAPPPS (ends and bridges not checked) [Compound No. 444]
[1]
  GIP EC50(pM): 0.39 pM
[2]
  GLP EC50: > 1000 nM

## Y[Aib]EGTFISDYSIALDR[Aib]HQ[Aib]NFVNW[Iva]LAQRPSK([Gly-Gly-Gly-Gly-Gly-γGlu-C18 diacid])GAPPPS (ends and bridges not checked) [Compound No. 445]
[1]
  GIP EC50(pM): 0.38 pM
[2]
  GLP EC50: > 1000 nM

## Y[Aib]EGTFISDYSIALDR[Aib]HQ[Aib]NFVNW[Iva]LAQRPSK([Gly-Gly-Gly-Gly-Gly-γGlu-C20 diacid])GAPPPS (ends and bridges not checked) [Compound No. 446]
[1]
  GIP EC50(pM): 0.85 pM
[2]
  GLP EC50: 891 nM

## Y[Aib]EGTFISDYSIALDR[Aib]HQ[Aib]NFVNW[Iva]LAQRPSSK([Gly-Gly-Gly-Gly-Gly-γGlu-C16 diacid])APPPS (ends and bridges not checked) [Compound No. 447]
[1]
  GIP EC50(pM): 0.31 pM
[2]
  GLP EC50: > 1000 nM

## Y[Aib]EGTFISDYSIALDR[Aib]HQ[Aib]NFVNW[Iva]LAQRPSSK([Gly-Gly-Gly-Gly-Gly-γGlu-C18 diacid])APPPS (ends and bridges not checked) [Compound No. 448]
[1]
  GIP EC50(pM): 0.54 pM
[2]
  GLP EC50: > 1000 nM

## Y[Aib]EGTFISDYSIALDR[Aib]HQ[Aib]NFVNW[Iva]LAQRPSSK([Gly-Gly-Gly-Gly-Gly-γGlu-C20 diacid])APPPS (ends and bridges not checked) [Compound No. 449]
[1]
  GIP EC50(pM): 0.65 pM
[2]
  GLP EC50: 912 nM

## Y[Aib]EGTFISDYSIALDR[Aib]HQ[Aib]NFVNW[Iva]LAQRPSSGK([Gly-Gly-Gly-Gly-Gly-γGlu-C16 diacid])PPPS (ends and bridges not checked) [Compound No. 450]
[1]
  GIP EC50(pM): 0.4 pM
[2]
  GLP EC50: > 1000 nM

## Y[Aib]EGTFISDYSIALDR[Aib]HQ[Aib]NFVNW[Iva]LAQRPSSGK([Gly-Gly-Gly-Gly-Gly-γGlu-C18 diacid])PPPS (ends and bridges not checked) [Compound No. 451]
[1]
  GIP EC50(pM): 0.74 pM
[2]
  GLP EC50: > 1000 nM

## Y[Aib]EGTFISDYSIALDR[Aib]HQ[Aib]NFVNW[Iva]LAQRPSSGK([Gly-Gly-Gly-Gly-Gly-γGlu-C20 diacid])PPPS (ends and bridges not checked) [Compound No. 452]
[1]
  GIP EC50(pM): 2.17 pM
[2]
  GLP EC50: > 1000 nM

## Y[Aib]EGTFISDYSIALDR[Aib]HQ[Aib]NFVNW[Iva]LAQRPSSGAK([Gly-Gly-Gly-Gly-Gly-γGlu-C16 diacid])PPS (ends and bridges not checked) [Compound No. 453]
[1]
  GIP EC50(pM): 0.6 pM
[2]
  GLP EC50: > 1000 nM

## Y[Aib]EGTFISDYSIALDR[Aib]HQ[Aib]NFVNW[Iva]LAQRPSSGAK([Gly-Gly-Gly-Gly-Gly-γGlu-C18 diacid])PPS (ends and bridges not checked) [Compound No. 454]
[1]
  GIP EC50(pM): 1.14 pM
[2]
  GLP EC50: > 1000 nM

## Y[Aib]EGTFISDYSIALDR[Aib]HQ[Aib]NFVNW[Iva]LAQRPSSGAK([Gly-Gly-Gly-Gly-Gly-γGlu-C20 diacid])PPS (ends and bridges not checked) [Compound No. 455]
[1]
  GIP EC50(pM): 2.24 pM
[2]
  GLP EC50: > 1000 nM

## Y[Aib]EGTFISDYSIALDR[Aib]HQ[Aib]NFVNW[Iva]LAQRPSSGAPK([Gly-Gly-Gly-Gly-Gly-γGlu-C16 diacid])PS (ends and bridges not checked) [Compound No. 456]
[1]
  GIP EC50(pM): 0.57 pM
[2]
  GLP EC50: > 1000 nM

## Y[Aib]EGTFISDYSIALDR[Aib]HQ[Aib]NFVNW[Iva]LAQRPSSGAPK([Gly-Gly-Gly-Gly-Gly-γGlu-C18 diacid])PS (ends and bridges not checked) [Compound No. 457]
[1]
  GIP EC50(pM): 0.82 pM
[2]
  GLP EC50: > 1000 nM

## Y[Aib]EGTFISDYSIALDR[Aib]HQ[Aib]NFVNW[Iva]LAQRPSSGAPK([Gly-Gly-Gly-Gly-Gly-γGlu-C20 diacid])PS (ends and bridges not checked) [Compound No. 458]
[1]
  GIP EC50(pM): 1.31 pM
[2]
  GLP EC50: > 1000 nM

## Y[Aib]EGTFISDYSIALDR[Aib]HQ[Aib]NFVNW[Iva]LAQRPSSGAPPK([Gly-Gly-Gly-Gly-Gly-γGlu-C16 diacid])S (ends and bridges not checked) [Compound No. 459]
[1]
  GIP EC50(pM): 0.41 pM
[2]
  GLP EC50: > 1000 nM

## Y[Aib]EGTFISDYSIALDR[Aib]HQ[Aib]NFVNW[Iva]LAQRPSSGAPPK([Gly-Gly-Gly-Gly-Gly-γGlu-C18 diacid])S (ends and bridges not checked) [Compound No. 460]
[1]
  GIP EC50(pM): 0.44 pM
[2]
  GLP EC50: > 1000 nM

## Y[Aib]EGTFISDYSIALDR[Aib]HQ[Aib]NFVNW[Iva]LAQRPSSGAPPK([Gly-Gly-Gly-Gly-Gly-γGlu-C20 diacid])S (ends and bridges not checked) [Compound No. 461]
[1]
  GIP EC50(pM): 1.3 pM
[2]
  GLP EC50: > 1000 nM

## Y[Aib]EGTFISDYSIALDR[Aib]HQ[Aib]NFVNW[Iva]LAQRK([PEG3′-PEG3′-C20 diacid])SSGAPPPSR (ends and bridges not checked) [Compound No 913]
[2]
  GLP EC50: 575 nM
